B1: Human IL-17F, Q96PD4 31-163 (ligand, UniProt Q96PD4 31-163, looked up)
chain: RKIPKVGHTFFQKPESCPPVPGGSMKLDIGIINENQRVSMSRNIESRSTSPWNYTVTWDPNRYPSEVVQAQCRNLGCINAQGKEDISMNSVPIQQETLVVRRKHQGCSVSFQLEKVLVTVGCTCVTPVIHHVQ
B2: Human IL-17F (ligand, UniProt Q96PD4 31-163, looked up)
chain: B1 chain

What was measured:
[1] = biological target: Human IL-17RA:Fc (human), Q96F46; experiment: SPR (BIAcore 3000), receptor:Fc captured by anti-human Fc, cytokine as analyte, koff/kon, 1:1 Langmuir fit; conditions: remark: other sources report otherwise
Human IL-17RC:Fc (human) = Human IL-17RC:Fc (human) (UniProt Q8NAC3); experiment: as above

Row | Kd [1] [nM] | Kd (Human IL-17RC:Fc (human)) [nM] | Binder
1 | 100 |  | B1
2 |  | 0.1 | B2

Reference: patent publication US20110008356A1
